Reference: PMC8153938 (ACS Omega, 2021)

B1: PKR R107A (enzyme, human, UniProt P19525 1-551, looked up)
chain: MAGDLSAGFFMEELNTYRQKQGVVLKYQELPNSGPPHDRRFTFQVIIDGREFPEGEGRSKKEAKNAAAKLAVEILNKEKKAVSPLLLTTTNSSEGLSMGNYIGLINAIAQKKRLTVNYEQCASGVHGPEGFHYKCKMGQKEYSIGTGSTKQEAKQLAAKLAYLQILSEETSVKSDYLSSGSFATTCESQSNSLVTSTLASESSSEGDFSADTSEINSNSDSLNSSSLLMNGLRNNQRKAKRSLAPRFDLPDMKETKYTVDKRFGMDFKEIELIGSGGFGQVFKAKHRIDGKTYVIKRVKYNNEKAEREVKALAKLDHVNIVHYNGCWDGFDYDPETSDDSLESSDYDPENSKNSSRSKTKCLFIQMEFCDKGTLEQWIEKRRGEKLDKVLALELFEQITKGVDYIHSKKLIHRDLKPSNIFLVDTKQVKIGDFGLVTSLKNDGKRTRSKGTLRYMSPEQISSQDYGKEVDLYALGLILAELLHVCDTAFETSKFFTDLRDGIISDIFDKKEKTLLQKLLSKKPEDRPNTSEILRTLTVWKKSPEKNERHTC

Legend:
[1] = molecular target: Unphosphorylated human Protein kinase R (PKR), wild type (human) (UniProt P19525); test: AUC
AUC = molecular target: the molecule itself; test: AUC

| Molecule | Kd [1] | Kd (AUC) |
| --- | --- | --- |
| Unphosphorylated human Protein kinase R (PKR), wild type (from UniProt P19525 1-551) (enzyme) | 702 µM | – |
| B1 | – | 704 µM |
